Here are results for one molecule from article PMC2169463.

This experiment addresses GST-BLM fusion protein (human), P54132. Put plainly: pull-down. As to conditions: remark: other sources report otherwise.

Sequence of GST-BLM fusion protein (human), P54132 (P54132 whole entry, the tested form may be a part): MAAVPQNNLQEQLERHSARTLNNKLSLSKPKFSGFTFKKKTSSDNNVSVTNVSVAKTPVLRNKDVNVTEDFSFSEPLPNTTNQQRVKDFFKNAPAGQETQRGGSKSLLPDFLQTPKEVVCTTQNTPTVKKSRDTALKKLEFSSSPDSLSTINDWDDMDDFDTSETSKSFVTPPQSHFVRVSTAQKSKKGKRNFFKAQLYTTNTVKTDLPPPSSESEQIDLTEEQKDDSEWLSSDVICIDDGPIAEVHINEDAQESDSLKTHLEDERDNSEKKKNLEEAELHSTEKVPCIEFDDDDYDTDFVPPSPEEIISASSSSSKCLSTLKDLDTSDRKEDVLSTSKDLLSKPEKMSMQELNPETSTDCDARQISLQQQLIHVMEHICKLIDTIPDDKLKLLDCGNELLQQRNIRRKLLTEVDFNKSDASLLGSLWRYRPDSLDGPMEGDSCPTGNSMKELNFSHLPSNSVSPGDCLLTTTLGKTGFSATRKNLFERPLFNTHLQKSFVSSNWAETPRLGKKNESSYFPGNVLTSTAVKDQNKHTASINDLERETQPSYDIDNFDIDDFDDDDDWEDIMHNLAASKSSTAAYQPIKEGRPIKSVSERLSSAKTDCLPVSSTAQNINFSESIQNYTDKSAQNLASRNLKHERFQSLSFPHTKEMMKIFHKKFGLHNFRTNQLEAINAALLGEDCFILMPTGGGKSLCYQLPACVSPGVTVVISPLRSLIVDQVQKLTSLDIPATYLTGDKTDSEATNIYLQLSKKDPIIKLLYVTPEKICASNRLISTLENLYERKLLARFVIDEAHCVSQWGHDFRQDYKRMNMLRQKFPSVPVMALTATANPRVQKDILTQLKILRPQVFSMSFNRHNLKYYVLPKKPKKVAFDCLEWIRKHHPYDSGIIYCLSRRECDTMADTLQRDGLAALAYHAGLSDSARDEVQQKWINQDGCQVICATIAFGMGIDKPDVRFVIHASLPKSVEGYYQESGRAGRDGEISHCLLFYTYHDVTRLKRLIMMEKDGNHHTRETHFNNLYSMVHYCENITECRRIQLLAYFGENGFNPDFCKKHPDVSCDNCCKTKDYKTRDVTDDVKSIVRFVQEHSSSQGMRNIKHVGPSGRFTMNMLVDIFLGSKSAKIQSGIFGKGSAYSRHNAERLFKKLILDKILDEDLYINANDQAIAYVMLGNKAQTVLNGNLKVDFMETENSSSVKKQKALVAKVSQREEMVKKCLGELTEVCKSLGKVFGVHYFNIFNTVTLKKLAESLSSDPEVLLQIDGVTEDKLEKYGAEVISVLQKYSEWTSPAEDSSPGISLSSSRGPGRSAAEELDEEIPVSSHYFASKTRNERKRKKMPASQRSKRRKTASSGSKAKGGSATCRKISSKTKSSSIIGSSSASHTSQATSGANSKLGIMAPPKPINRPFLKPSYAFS

B1: hRAD51, Q06609 1-339 (natural protein)
chain: MAMQMQLEANADTSVEEESFGPQPISRLEQCGINANDVKKLEEAGFHTVEAVAYAPKKELINIKGISEAKADKILAEAAKLVPMGFTTATEFHQRRSEIIQITTGSKELDKLLQGGIETGSITEMFGEFRTGKTQICHTLAVTCQLPIDRGGGEGKAMYIDTEGTFRPERLLAVAERYGLSGSDVLDNVAYARAFNTDHQTQLLYQASAMMVESRYALLIVDSATALYRTDYSGRGELSARQMHLARFLRMLLRLADEFGVAVVITNQVVAQVDGAAMFAADPKKPIGGNIIAHASTTRLYLRKGRGETRICKIYDSPCLPEAEAMFAINADGVGDAKD
The molecule B1 came in with a percent of the hRAD51 in the lysate retained of 30 to 40%.
